Biological target: FLAG-tagged human GABAC-ρ1 subunit V353D (human, UniProt P24046 22-479, V353D)
Assay: co-IP

B1: Calnexin (natural protein, human (endogenous in HEK293), UniProt P27824 21-592, looked up)
chain: HDGHDDDVIDIEDDLDDVIEEVEDSKPDTTAPPSSPKVTYKAPVPTGEVYFADSFDRGTLSGWILSKAKKDDTDDEIAKYDGKWEVEEMKESKLPGDKGLVLMSRAKHHAISAKLNKPFLFDTKPLIVQYEVNFQNGIECGGAYVKLLSKTPELNLDQFHDKTPYTIMFGPDKCGEDYKLHFIFRHKNPKTGIYEEKHAKRPDADLKTYFTDKKTHLYTLILNPDNSFEILVDQSVVNSGNLLNDMTPPVNPSREIEDPEDRKPEDWDERPKIPDPEAVKPDDWDEDAPAKIPDEEATKPEGWLDDEPEYVPDPDAEKPEDWDEDMDGEWEAPQIANPRCESAPGCGVWQRPVIDNPNYKGKWKPPMIDNPSYQGIWKPRKIPNPDFFEDLEPFRMTPFSAIGLELWSMTSDIFFDNFIICADRRIVDDWANDGWGLKKAADGAAEPGVVGQMIEAAEERPWLWVVYILTVALPVFLVILFCCSGKKQTSGMEYKKTDAPQPDVKEEEEEKEEEKDKGDEEEEGEEKLEEKQKSDAEEDGGTVSQEEEDRKPKAEEDEILNRSPRNRKPRRE
- fold change of the ratio of immunoprecipitated calnexin/ρ1 against WT: 1.8 fold
